# Source: patent US6436666
# Values joined by “and” are separate entries in the source; they are usually repeats but may differ in a detail not shown here. Equal values may be shown once.
# Experiments:
# [1] = target: Substrate: protein A-G-G-G-G-7aa-NS4B/5A cleavage site-8aa-FLAG-G-FLAG-G-FLAG (Example 6) (hepatitis C virus); test: time-resolved fluorometry: 20 nM substrate captured on IgG coated Immulon-4 plate, detected with Eu^3+-anti-FLAG MoAb
# [2] = target: pro A-NS5 target polypeptide of Examples 3 and 4 (protein A anchor region, linker, protease target site of HCV NS5A/5B, linker, FLAG epitope tag region) (hepatitis C virus); test: ELISA: pro A-NS5 on human IgG plate, no protease, anti-FLAG then goat anti-mouse conjugate
# [3] = target: pro A-NS5, polypeptide substrate of HCV protease (Example 1 construct: Protein A - NS5A/5B protease target site - three FLAG tags) (hepatitis C virus); test: ELISA: pro A-NS5 10 µg/ml captured on IgG plate, no protease, anti-FLAG then goat anti-mouse-HRP, OPD
# [4] = target: pro A-NS5, polypeptide substrate of HCV protease (Example 1 construct: Protein A - NS5A/5B protease target site - three FLAG tags) (hepatitis C virus); test: ELISA: proA-NS5 2 µg/ml captured on IgG plate, no protease, anti-FLAG then goat anti-mouse-HRP, OPD
# [5] = target: pro A-NS5, polypeptide substrate of HCV protease (Example 1 construct: Protein A - NS5A/5B protease target site - three FLAG tags) (hepatitis C virus); test: ELISA: pro A-NS5 on IgG plate, no protease, anti-FLAG then goat anti-mouse-HRP; Exp. 1
# [6] = target: pro A-NS5, polypeptide substrate of HCV protease (Example 1 construct: Protein A - NS5A/5B protease target site - three FLAG tags) (hepatitis C virus); test: ELISA: pro A-NS5 on IgG plate, no protease, anti-FLAG then goat anti-mouse-HRP; Exp. 2
# [7] = target: Peptide 4A, a co-factor of the NS3 HCV protease (Example 2)
molecule,measurement,setting,value
"Eu^3+-anti-FLAG MoAb (Sigma via Kodak, cat#IB13026, lot# 710413) (antibody)",Eu^3+ counts,[1],1.31e+06 Eu^3+ counts and 1.26e+06 Eu^3+ counts
"Mouse monoclonal anti-FLAG M2 (IBI, IBI13010/6j0612) (antibody)",OD w/o DMSO,[2],2.6 OD
monoclonal anti-FLAG mouse antibody (available from Kodak),OD,[3],1.21 OD
same,OD,[4],0.77 OD
same,OD,[5],1.23 OD
same,OD,[6],0.93 OD
"protease 1: Ni-13 (F21) 20 µM, preparation made at Chiron (protein) APITAYAQQTRGLLGCIITSLTGRDKNQVEGEVQIVSTAAQTFLATCINGVCWTVYHGAGTRTIASPKGPVIQMYTNVDQDLVGWPAPQGSRSLTPCTCGSSDLYLVTRHADVIPVRRRGDSRGSLLSPRPISYLKGSSGGPLLCPAGHAVGIFRAAVCTRGVAKAVDFIPVENLETTMRS",cleavage of the NS4B/5A substrate by the protease with and without the co-factor peptide,[7],These data demonstrates the operability of the screening assay using HCV NS4B/5A protease cleavage site with co-factor peptide 4A
